Test results published in publication PMC4176334.

Target: M. tuberculosis RNAP core;SigB;RbpA (Mycobacterium …, UniProt P9WGZ1;P9WGY9;P9WGY7;P9WGY5;P9WGI5;P9WHJ5 1-347;1-1178;1-1316;1-110;1-323;1-111, ||)
Test: EMSA

B1: galP1AA (dsDNA)
DNA 1: GTTTATTCCATGTCACACTTTTCGCATCTTTTCGTTGCTATAATTATTTCATACCAAAAGCCTAATGGAGCG
DNA 2: CGCTCCATTAGGCTTTTGGTATGAAATAATTATAGCAACGAAAAGATGCGAAAAGTGTGACATGGAATAAAC
binding result: binds
